Consider four molecules from PMC7246297.

Common to all, as to assay: ELAA
One data set has as its target Nucleocapsid (N) protein (SARS-CoV-2, UniProt P0DTC9 1-419).
The target of data set [1] is 3C-like protease (3CLpro) (SARS-CoV-2, UniProt P0DTD1 3264-3569).
The target in data set [2] is Spike receptor-binding domain (S-RBD-Fc) (SARS-CoV-2, UniProt P0DTC2 319-541).

B1: Aptamer n.c. (33 nt) (ssDNA)
DNA: GCAATGGTACGGTACTTCCGGATGCGGAAACTG
Take B1: the binding result (with Nucleocapsid (N) protein; in data set [1]; in data set [2]) was “no binding” each time.

B2: N Aptamer 2 (78 nt) (ssDNA)
DNA: GCAATGGTACGGTACTTCCGGATGCGGAAACTGGCTAATTGGTGAGGCTGGGGCGGTCGTGCAGCAAAAGTGCACGCT
On to B2, for which the binding result with Nucleocapsid (N) protein is given as “binds”.

B3: N Aptamer 1 (88 nt) (ssDNA)
DNA: GCAATGGTACGGTACTTCCGGATGCGGAAACTGGCTAATTGGTGAGGCTGGGGCGGTCGTGCAGCAAAAGTGCACGCTACTTTGCTAA
For B3, in the data set with Nucleocapsid (N) protein, the binding result is reported as “binds”.

B4: N Aptamer 3 (57 nt) (ssDNA)
DNA: GCAATGGTACGGTACTTCCGGATGCGGAAACTGGCTAATTGGTGAGGCTGGGGCGGT
Regarding B4, in the data set with Nucleocapsid (N) protein, the binding result was “binds”.
